These results are taken from paper PMC10786891, “Massively parallel profiling of RNA-targeting CRISPR-Cas13d”.

Numbering of substitutions follows the chain as printed. Numbers in names are those of the source.

The labels stand for the following.
T1: EsCas13d, nuclease-dead (Eubacterium siraeum, UniProt B0MS50, R295A;H300A;R849A;H854A)
T1 sequence: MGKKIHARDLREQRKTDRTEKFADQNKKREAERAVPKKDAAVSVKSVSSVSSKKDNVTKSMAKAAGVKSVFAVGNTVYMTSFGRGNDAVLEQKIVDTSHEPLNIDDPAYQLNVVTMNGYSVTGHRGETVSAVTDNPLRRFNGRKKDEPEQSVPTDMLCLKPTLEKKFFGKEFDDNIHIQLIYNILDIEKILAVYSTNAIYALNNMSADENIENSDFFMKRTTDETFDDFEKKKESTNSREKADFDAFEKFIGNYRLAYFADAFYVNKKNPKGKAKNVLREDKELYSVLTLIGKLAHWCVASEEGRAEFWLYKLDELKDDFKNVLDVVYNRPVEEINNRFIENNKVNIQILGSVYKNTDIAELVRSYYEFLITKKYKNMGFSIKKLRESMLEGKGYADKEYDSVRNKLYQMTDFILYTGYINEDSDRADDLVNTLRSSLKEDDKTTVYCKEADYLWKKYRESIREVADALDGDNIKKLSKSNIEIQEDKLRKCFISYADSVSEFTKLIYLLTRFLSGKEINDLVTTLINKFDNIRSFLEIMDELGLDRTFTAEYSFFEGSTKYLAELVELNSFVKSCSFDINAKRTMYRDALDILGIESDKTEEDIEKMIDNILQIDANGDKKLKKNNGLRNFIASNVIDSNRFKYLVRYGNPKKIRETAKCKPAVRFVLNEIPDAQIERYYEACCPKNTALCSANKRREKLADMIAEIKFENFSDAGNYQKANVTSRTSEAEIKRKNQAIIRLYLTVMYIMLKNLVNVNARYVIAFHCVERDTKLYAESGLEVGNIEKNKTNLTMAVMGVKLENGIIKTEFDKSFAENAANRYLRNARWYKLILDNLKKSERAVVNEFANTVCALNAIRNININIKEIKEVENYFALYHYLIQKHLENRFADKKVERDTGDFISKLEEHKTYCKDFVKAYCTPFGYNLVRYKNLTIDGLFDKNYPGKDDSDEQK

B1: target 1 C2A,G13C (mixed)
RNA 1: CACCCGUGCAAAAAUGCAGGGGUCUAAAACUGAGCGGAUAACCUCUCUAUGG
RNA 2: GGGAAUGGAUCCACAUCUACGAAUUCGUACCAUAGAGACGUUAUCCGCUAACCGAGAUCGGAAGAGCACACGU
B2: target 1 insG 3' of 9,insA 3' of 4 (mixed)
RNA 1: B1 RNA 1
RNA 2: GGGAAUGGAUCCACAUCUACGAAUUCGUACCAUAGAGAGGUUAGUCCGCAUCACCGAGAUCGGAAGAGCACACGU
B3: target 1 U10G,A16C (mixed)
RNA 1: B1 RNA 1
RNA 2: B1 RNA 2 with A36C, C39G, U42G, A50C
B4: target 1 insU 3' of 17,insG 3' of 7 (mixed)
RNA 1: B1 RNA 1
RNA 2: GGGAAUGGAUCCACAUCUACGAAUUCGUACCAUAGUAGAGGUUAUCGCGCUCACCGAGAUCGGAAGAGCACACGU
B5: target 3 insG 3' of 6,insC 3' of 5 (mixed)
RNA 1: CACCCGUGCAAAAUUGCAGGGGUCUAAAACGACCUGAAUAUUUCAGAUCAAA
RNA 2: GGGAAUGGAUCCACAUCUACGAAUUCGUUUUUGAUCUGAAAUAUUCGACGGUCUGCAGAUCGGAAGAGCACACGU
B6: target 3 G4C,U21A (mixed)
RNA 1: B5 RNA 1
RNA 2: GGGAAUGGAUCCACAUCUACGAAUUCGUUUAUGAUCUGAAAUAUUCACGUCUGCAGAUCGGAAGAGCACACGU
B7: target 3 del4,del22 (mixed)
RNA 1: B5 RNA 1
RNA 2: GGGAAUGGAUCCACAUCUACGAAUUCGUUUUGAUCUGAAAUAUUCAGUCUGCAGAUCGGAAGAGCACACGU
B8: target 3 G4A (mixed)
RNA 1: B5 RNA 1
RNA 2: B6 RNA 2 with A31U, C48A
B9: target 3 del5,del6 (mixed)
RNA 1: B5 RNA 1
RNA 2: GGGAAUGGAUCCACAUCUACGAAUUCGUUUUUGAUCUGAAAUAUUGGUCUGCAGAUCGGAAGAGCACACGU
B10: target 3 C1G,U2C (mixed)
RNA 1: B5 RNA 1
RNA 2: B6 RNA 2 with A31U, C48G, U50C, C51G
B11: target 3 U2G,U21A (mixed)
RNA 1: B5 RNA 1
RNA 2: B6 RNA 2 with C48G, U50G
B12: target 3 A9G,U21A (mixed)
RNA 1: B5 RNA 1
RNA 2: B6 RNA 2 with A43G, C48G
B13: target 3 insA 3' of 17,insA 3' of 15 (mixed)
RNA 1: B5 RNA 1
RNA 2: GGGAAUGGAUCCACAUCUACGAAUUCGUUUUUGAUACUAGAAAUAUUCAGGUCUGCAGAUCGGAAGAGCACACGU
B14: target 3 insG 3' of 7,insG 3' of 6 (mixed)
RNA 1: B5 RNA 1
RNA 2: B5 RNA 2 with C46G, G47C, A48G, C49A
B15: target 3 A5G,U8C (mixed)
RNA 1: B5 RNA 1
RNA 2: B6 RNA 2 with A31U, U44C, A47G, C48G
B16: target 3 insU 3' of 22,insG 3' of 5 (mixed)
RNA 1: B5 RNA 1
RNA 2: GGGAAUGGAUCCACAUCUACGAAUUCGUUUUUUGAUCUGAAAUAUUCAGGGUCUGCAGAUCGGAAGAGCACACGU
B17: target 3 insC 3' of 9,insU 3' of 4 (mixed)
RNA 1: B5 RNA 1
RNA 2: B5 RNA 2 with U44C, C46U, G47C, C49G, G50U
B18: target 3 insC 3' of 2,insU 3' of 1 (mixed)
RNA 1: B5 RNA 1
RNA 2: B5 RNA 2 with G47A, A48G, C49G, G50U, G51C, U52C, C53U
B19: target 3 G3U,U22A (mixed)
RNA 1: B5 RNA 1
RNA 2: B6 RNA 2 with U30A, A31U, C48G, G49U
B20: target 3 insA 3' of 21,insG 3' of 2 (mixed)
RNA 1: B5 RNA 1
RNA 2: B16 RNA 2 with U32A, G51U, U52G
B21: target 3 insA 3' of 4,insA 3' of 3 (mixed)
RNA 1: B5 RNA 1
RNA 2: B5 RNA 2 with G47A, A48G, C49A, G51A
B22: target 3 C1A,U7A (mixed)
RNA 1: B5 RNA 1
RNA 2: B6 RNA 2 with A31U, U45A, C48G, C51A
B23: target 3 insC 3' of 8,insU 3' of 3 (mixed)
RNA 1: B5 RNA 1
RNA 2: B5 RNA 2 with U45C, C46U, G47C, C49G, G51U
B24: target 3 insA 3' of 22,insU 3' of 4 (mixed)
RNA 1: B5 RNA 1
RNA 2: B16 RNA 2 with U31A, G50U
B25: target 3 insA 3' of 8,insC 3' of 4 (mixed)
RNA 1: B5 RNA 1
RNA 2: B5 RNA 2 with U45A, C46U, G47C, C49G, G50C
B26: target 3 G4U,U7A (mixed)
RNA 1: B5 RNA 1
RNA 2: B6 RNA 2 with A31U, U45A, C48U
B27: target 3 G19A,U20G (mixed)
RNA 1: B5 RNA 1
RNA 2: B6 RNA 2 with A31U, U32G, G33A, C48G
B28: target 3 C6A,U22G (mixed)
RNA 1: B5 RNA 1
RNA 2: B6 RNA 2 with U30G, A31U, C46A, C48G
B29: target 3 A5U,U22A (mixed)
RNA 1: B5 RNA 1
RNA 2: B6 RNA 2 with U30A, A31U, A47U, C48G
B30: target 3 insU 3' of 11,insA 3' of 6 (mixed)
RNA 1: B5 RNA 1
RNA 2: B5 RNA 2 with A43U, U44A, C46U, G47C, C49A
B31: target 3 A5G,U8G (mixed)
RNA 1: B5 RNA 1
RNA 2: B6 RNA 2 with A31U, U44G, A47G, C48G

This series concerns the target T1, EsCas13d, nuclease-dead. The experiment in a line: crRNA (strand 1, pre-loaded); Mg2+; 40 mM Tris-HCl pH 7.5, 150 mM NaCl, 6 mM MgCl2, 1 mM DTT, 0.1% Tween-20, 0.2 mg/ml BSA; 25 C; 10 min per concentration, then washed. As to conditions: tags: His6-TwinStrep-SUMO cleaved; N-terminal SNAP kept (SNAP-Surface 488); label: 3' end held by stalled T7 RNA polymerase.
On to B1, for which binding was characterised by a dissociation constant (Kd) of 50 ± 5 nM.

B2 displayed a Kd of 9.6 ± 1 nM.

The molecule B3 registered a Kd of 57 ± 10 nM.

For B4, the Kd came to 13.7 ± 0.6 nM.

With B5, binding was put at a Kd of 11.4 ± 1.1 nM.

B6 yielded a Kd of 87 ± 16 nM. This Kd lies about 7.6-fold higher than the previous one.

Take B7: the affinity, expressed as Kd, was 16.6 ± 2.3 nM. Against the preceding molecule, the Kd is about 5.2-fold lower.

Turning to B8, the dissociation constant Kd was found to be 4.89 ± 0.35 nM.

For B9, the affinity, expressed as Kd, was 72 ± 9 nM. Compared with the last molecule, the Kd is about 15-fold higher.

With B10, the affinity, expressed as Kd, was 17.1 ± 3.8 nM.

Turning to B11, the Kd turned out to be 36.5 ± 7 nM.

In turn, B12 registered a Kd of 95.5 ± 22.5 nM.

Molecule B13 yielded a Kd of 36.9 ± 8.1 nM.

Molecule B14 came in with a dissociation constant (Kd) of 24.9 ± 1.9 nM.

For the molecule B15, the Kd stood at 86.5 ± 13 nM.

With B16, the Kd was determined as 17.4 ± 1.7 nM.

The molecule B17 returned an equilibrium dissociation constant (Kd) of 41.5 ± 6 nM.

As for B18, binding was characterised by a dissociation constant (Kd) of 82.5 ± 27.5 nM. This Kd is about 2-fold higher than that of the molecule before.

The molecule B19 displayed a Kd of 20.6 ± 2.75 nM.

Consider B20, for which binding was put at a Kd of 39.8 ± 3.75 nM.

B21 displayed a Kd of 50 ± 7.5 nM.

Consider B22, for which the Kd came out at 28.5 ± 14 nM.

As to B23, the equilibrium dissociation constant (Kd) is 59 ± 25.5 nM.

Regarding B24, the Kd came out at 4.56 ± 0.52 nM.

Take B25: binding was put at a Kd of 61.5 ± 9.5 nM.

As for B26, binding was put at a Kd of 10.4 ± 1.4 nM. This Kd lies about 5.9-fold lower than the previous one.

For B27, the Kd was determined as 55 ± 8 nM.

Molecule B28 came in with a Kd of 108 ± 25 nM.

B29 came in with a Kd of 48 ± 10 nM.

Consider B30, for which binding was put at a Kd of 63 ± 8.5 nM.

As to B31, the Kd was found to be 65.5 ± 7.5 nM.

Usually Kd stands for the constant that tells how readily two partners part at equilibrium.
